Assay results from article doi:10.1101/839027v1.
Residue numbers refer to the chain shown, from its start. Names may count otherwise.

B1: β-glucosidase B (BglB) (Paenibacillus polymyxa) (protein)
chain: MSENTFIFPATFMWGTSTSSYQIEGGTDEGGRTPSIWDTFCQIPGKVIGGDCGDVACDHFHHFKEDVQLMKQLGFLHYRFSVAWPRIMPAAGIINEEGLLFYEHLLDEIELAGLIPMLTLYHWDLPQWIEDEGGWTQRETIQHFKTYASVIMDRFGERINWWNTINEPYCASILGYGTGEHAPGHENWREAFTAAHHILMCHGIASNLHKEKGLTGKIGITLNMEHVDAASERPEDVAAAIRRDGFINRWFAEPLFNGKYPEDMVEWYGTYLNGLDFVQPGDMELIQQPGDFLGINYYTRSIIRSTNDASLLQVEQVHMEEPVTDMGWEIHPESFYKLLTRIEKDFSKGLPILITENGAAMRDELVNGQIEDTGRHGYIEEHLKACHRFIEEGGQLKGYFVWSFLDNFEWAWGYSKRFGIVHINYETQERTPKQSALWFKQMMAKNGF
B2: β-glucosidase B (BglB) (Paenibacillus polymyxa; T431I) (protein)
chain: B1 chain with T431I
B3: β-glucosidase B (BglB) (Paenibacillus polymyxa; M319C) (protein)
chain: B1 chain with M319C
B4: β-glucosidase B (BglB) (Paenibacillus polymyxa; K337D) (protein)
chain: B1 chain with K337D

Substrate: O=[N+]([O-])c1ccc(O[C@@H]2O[C@H](CO)[C@@H](O)[C@H](O)[C@H]2O)cc1
Test: purified protein

Protein | Km [mM] | kcat [s⁻¹]
B1 | 6.5 ± 0.2 | 17.83 ± 0.167
B2 | 5.1 ± 0.1 | 15.3 ± 0.717
B3 | 6.0 ± 0.5 | 15 ± 0.517
B4 | 4.3 ± 0.1 | 13.2 ± 0.667
